The values below come from publication PMC6073210, “Adducin‐1 is essential for spindle pole integrity through its interaction with TPX2” (EMBO Reports, 2018).

First the molecules themselves.
B1: FLAG-ADD1 WT (adducin-1), transiently expressed in HEK293 cells [not stated] / GST-TPX2 aa 120–370 fusion protein [human] (parent)
chain 1: MNGDSRAAVVTSPPPTTAPHKERYFDRVDENNPEYLRERNMAPDLRQDFNMMEQKKRVSMILQSPAFCEELESMIQEQFKKGKNPTGLLALQQIADFMTTNVPNVYPAAPQGGMAALNMSLGMVTPVNDLRGSDSIAYDKGEKLLRCKLAAFYRLADLFGWSQLIYNHITTRVNSEQEHFLIVPFGLLYSEVTASSLVKINLQGDIVDRGSTNLGVNQAGFTLHSAIYAARPDVKCVVHIHTPAGAAVSAMKCGLLPISPEALSLGEVAYHDYHGILVDEEEKVLIQKNLGPKSKVLILRNHGLVSVGESVEEAFYYIHNLVVACEIQVRTLASAGGPDNLVLLNPEKYKAKSRSPGSPVGEGTGSPPKWQIGEQEFEALMRMLDNLGYRTGYPYRYPALREKSKKYSDVEVPASVTGYSFASDGDSGTCSPLRHSFQKQQREKTRWLNSGRGDEASEEGQNGSSPKSKTKWTKEDGHRTSTSAVPNLFVPLNTNPKEVQEMRNKIREQNLQDIKTAGPQSQVLCGVVMDRSLVQGELVTASKAIIEKEYQPHVIVSTTGPNPFTTLTDRELEEYRREVERKQKGSEENLDEAREQKEKSPPDQPAVPHPPPSTPIKLEEDLVPEPTTGDDSDAATFKPTLPDLSPDEPSEALGFPMLEKEEEAHRPPSPTEAPTEASPEPAPDPAPVAEEAAPSAVEEGAAADPGSDGSPGKSPSKKKKKFRTPSFLKKSKKKSDS
chain 2: RSLRLSAQKDLEQKEKHHVKMKAKRCATPVIIDEILPSKKMKVSNNKKKPEEEGSAHQDTAEKNASSPEKAKGRHTVPCMPPAKQKFLKSTEEQELEKSMKMQQEVVEMRKKNEEFKKLALAGIGQPVKKSVSQVTKSVDFHFRTDERIKQHPKNQEEYKEVNFTSELRKHPSSPARVTKGCTIVKPFNLSQGKKRTFDETVSTYVPLAQQVEDFHKRTPNRYHLRSKKDDINLLPSKSSVTKICRDPQTP

In this assay the parent is B1. Nature of the assay: GST pull-down (immunoblot quantification). As to conditions: with GST-TPX2 aa 120–370 fusion protein [human]; lysates from HEK293 cells; five independent experiments; means ± s.d.; parent: 100; read off a plot.
Regarding chain 1 S726A, the percent of parent was 40%.
